Biological target: the molecule itself
Experiment: crystal structure; crystals of free human Nudt16 (2.3 Å, with 100 mM MES pH 5.5) and of Nudt16 incubated with 5 mM FAD (2.7 Å); sitting drop at 20°C, 0.2 M ammonium chloride, 20% PEG 3350

B1: human Nudt16 (residues 1-184) (enzyme, UniProt Q96DE0 1-184, looked up)
chain: MAGARRLELGEALALGSGWRHACHALLYAPDPGMLFGRIPLRYAILMQMRFDGRLGFPGGFVDTQDRSLEDGLNRELREELGEAAAAFRVERTDYRSSHVGSGPRVVAHFYAKRLTLEELLAVEAGATRAKDHGLEVLGLVRVPLYTLRDGVGGLPTFLENSFIGSAREQLLEALQDLGLLQSG
notes: Nudt16, human, residues 1-184, cloned into a modified pET28a vector; Seen as a dimer in both crystal forms, free and with FAD; PDB 3COU is the cited search model for molecular replacement; also called free human Nudt16; source: E. coli BL21(DE3), purified (Ni-NTA, UlpI cleavage, heparin column, Sephacryl S-200); not shown: His6, N-terminal, cleaved; yeast SMT3 SUMO, N-terminal, cleaved
Q: Does B1 bind?
A: Result: binds

Source: publication PMC7337524, “Mammalian Nudix proteins cleave nucleotide metabolite caps on RNAs” (Nucleic Acids Research, 2020)
